Experimental data from the supplement of paper PMC9233669.
Variants at the floor of the assay were thinned out.

Experiments:
[1] = tested on: biotinyl-Leu-oxazolone; experiment: self-aminoacylation, catalytic enhancement (BLO) (fold over background); higher = more active; k-Seq, kA / k0A0; sequences stand for … in GGGAAUGGAUCCACAUCUACGAAUUC…UUCACUGCAGACUUGACGAAGCUG
How it was run: (§1)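 Working in 50 μL HEPES/NaCl/KCl/MgCl2/CaCl2 buffer with 5% acetonitrile at pH 6.9–7.0, mutagenized RNA pools (0.43 μM; 21-nt variable region) were reacted with 2–1250 μM of each biotinyl-aminoacyl-oxazolone for 90 minutes at room temperature. Streptavidin capture followed, with quantification by triplicate qPCR and Illumina sequencing. Catalytic enhancement is reported as median kA over the uncatalyzed rate, the low-activity peak of a bimodal Gaussian fit to the data.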

[2] = tested on: biotinyl-Val-oxazolone; experiment: self-aminoacylation, catalytic enhancement (BVO) (fold over background); higher = more active; k-Seq, kA / k0A0; sequences stand for … in GGGAAUGGAUCCACAUCUACGAAUUC…UUCACUGCAGACUUGACGAAGCUG
How it was run: as §1

[3] = tested on: biotinyl-Trp-oxazolone; experiment: self-aminoacylation, catalytic enhancement (BWO) (fold over background); higher = more active; k-Seq, kA / k0A0; sequences stand for … in GGGAAUGGAUCCACAUCUACGAAUUC…UUCACUGCAGACUUGACGAAGCUG
How it was run: as §1

[4] = tested on: biotinyl-Met-oxazolone; experiment: self-aminoacylation, catalytic enhancement (BMO) (fold over background); higher = more active; k-Seq, kA / k0A0; sequences stand for … in GGGAAUGGAUCCACAUCUACGAAUUC…UUCACUGCAGACUUGACGAAGCUG
How it was run: as §1

[5] = tested on: biotinyl-Phe-oxazolone; experiment: self-aminoacylation, catalytic enhancement (BFO) (fold over background); higher = more active; k-Seq, kA / k0A0; sequences stand for … in GGGAAUGGAUCCACAUCUACGAAUUC…UUCACUGCAGACUUGACGAAGCUG
How it was run: as §1

[6] = tested on: biotinyl-Ile-oxazolone; experiment: self-aminoacylation, catalytic enhancement (BIO) (fold over background); higher = more active; k-Seq, kA / k0A0; sequences stand for … in GGGAAUGGAUCCACAUCUACGAAUUC…UUCACUGCAGACUUGACGAAGCUG
How it was run: as §1

Row | Sequence | self-aminoacylation [1] | self-aminoacylation [2] | self-aminoacylation [3] | self-aminoacylation [4] | self-aminoacylation [5] | self-aminoacylation [6]
1 | ACACACUUCAAGCAAUCAGUC [Fam1B.1 aminoacylation ribozyme variant] | 0.999 | 1.11 | 4.18 | 0.988 | 9.33 | 1.12
2 | AUUCACCUUGGUCAUCCGGUG [Fam2.2 aminoacylation ribozyme variant] | 11.5 | 6.17 | 7.75 | 8.93 | 60.2 | 6.27
3 | AUUACCCUGGUCAUCUAGGGA [Fam2.1 aminoacylation ribozyme variant] | 1.47 | 1.32 | 0.956 | 1.17 | 1.72 | 1.36
4 | GUUACCUUGGUCAUCGAGUGA [Fam2.1 aminoacylation ribozyme variant] | 7.14 | 4.21 | 9.03 | 7.16 | 21.1 | 4.39
5 | AAUACCCUGGUCAGCGAGUGA [Fam2.1 aminoacylation ribozyme variant] | 4.46 | 2.61 | 5.5 | 4.02 | 3.78 | 2.36
6 | AUUACCGUGGUCAGCGAGUGA [Fam2.1 aminoacylation ribozyme variant] | 4.64 | 3.1 | 6.24 | 4.54 | 19.3 | 3.02
7 | AUUCACCUAGGACACCGGGUG [Fam2.2 aminoacylation ribozyme variant] | 3.94 | 3.63 | 3.19 | 3.51 | 15.6 | 3.57
8 | AUUCACCUACGUCAUCGGGUA [Fam2.2 aminoacylation ribozyme variant] | 1.96 | 1.61 | 2.18 | 1.94 | 0.967 | 1.58
9 | AUUCACCUAGGGCAUAGGGUG [Fam2.2 aminoacylation ribozyme variant] | 6.33 | 2.76 | 4.16 | 4.74 | 38.6 | 3.22
10 | CCACACCUCGAGCAAUCGGUC [Fam1B.1 aminoacylation ribozyme variant] | 1.11 | 1.88 | 1.95 | 1.18 | 0.967 | 1.39
11 | CCACGCUUCAAGCAAUCGCUC [Fam1B.1 aminoacylation ribozyme variant] | 0.929 | 1.42 | 1.13 | 0.927 | 0.605 | 0.955
12 | CCACACUUCAUGCUAUCGGUC [Fam1B.1 aminoacylation ribozyme variant] | 0.69 | 0.931 | 0.714 | 0.626 | 0.838 | 0.834
13 | AUUCACUUAGGUCACCGGGUG [Fam2.2 aminoacylation ribozyme variant] | 5.15 | 3.33 | 5.19 | 4.86 | 28.2 | 3.47
14 | AUGUUUGCUAAUAAUCGCAAG [Fam3.1 aminoacylation ribozyme variant] | 1.06 | 1.35 | 1.04 | 0.97 | 1.34 | 1.38
15 | AUUCACCUAGAUCAUCGGGUG [Fam2.2 aminoacylation ribozyme variant] | 3.47 | 2.22 | 2.95 | 2.8 | 14.9 | 2.1
16 | AAGUUUGCUAAUAGUCGGAAC [Fam3.1 aminoacylation ribozyme variant] | 0.951 | 0.851 | 1.05 | 1.01 | 0.662 | 1.05
17 | AUUCACCUUGGUCAUCGGGUG [Fam2.2 aminoacylation ribozyme variant] | 9.96 | 4.97 | 7.43 | 7.9 | 55.7 | 4.71
18 | AUUCACUUAGGUCAUCGGGUU [Fam2.2 aminoacylation ribozyme variant] | 1.69 | 1.65 | 1.47 | 1.78 | 6.63 | 1.59
19 | AUUUACCUAGGUCAUCGGGUU [Fam2.2 aminoacylation ribozyme variant] | 11.7 | 4.59 | 6.98 | 8.02 | 36.2 | 5.12
20 | AACCACCUAGGUCAUCGGGUG [Fam2.2 aminoacylation ribozyme variant] | 4.62 | 4.48 | 6.68 | 5.6 | 28.8 | 3.78
21 | AUUACCCGGGUCAUCGAGUGU [Fam2.1 aminoacylation ribozyme variant] | 3.19 | 2.11 | 3.42 | 3.48 | 10.8 | 2.33
22 | AUUACCCUGGUCAUAGAGUAA [Fam2.1 aminoacylation ribozyme variant] | 1.37 | 1.29 | 0.757 | 1.17 | 0.983 | 1.44

Row | Sequence | self-aminoacylation [1] | self-aminoacylation [2] | self-aminoacylation [3] | self-aminoacylation [4] | self-aminoacylation [5] | self-aminoacylation [6]
23 | AUUGCCCUGGUCAUCGCGUGA [Fam2.1 aminoacylation ribozyme variant] | 26.3 | 12 | 23.6 | 23.1 | 157 | 9.62
24 | AAGUUUGCCAAUAGUCGCUAG [Fam3.1 aminoacylation ribozyme variant] | 0.951 | 0.926 | 2.08 | 0.716 | 0.897 | 1.15
25 | CCCCACUUCAAGCAACCGGUC [Fam1B.1 aminoacylation ribozyme variant] | 2.05 | 2.15 | 2.18 | 1.82 | 3.09 | 1.99
26 | AUUACCCUGGUCAUCUAGUGG [Fam2.1 aminoacylation ribozyme variant] | 2.32 | 1.48 | 2.08 | 2.14 | 2.7 | 1.3
27 | AAUUUUGCUACUAGUCGCAAG [Fam3.1 aminoacylation ribozyme variant] | 1.54 | 1.74 | 2.5 | 1.53 | 2.25 | 1.87
28 | GAUCACCUAGGUCAUCGGGUG [Fam2.2 aminoacylation ribozyme variant] | 3.71 | 3.54 | 5.58 | 3.44 | 17.2 | 3.45
29 | CCACACUUCAAGCAAUGGGUA [Fam1B.1 aminoacylation ribozyme variant] | 1.31 | 1.4 | 1.35 | 1.39 | 0.907 | 1.35
30 | CUACUUGAAACAAUCGGUCGG [Fam1A.1 aminoacylation ribozyme variant] | 1.13 | 0.949 | 0.589 | 0.994 | 0.733 | 0.997
31 | CAACACUUCAAGCAAUCGGUC [Fam1B.1 aminoacylation ribozyme variant] | 1.55 | 1.27 | 20.1 | 1.11 | 43.1 | 1.13
32 | AUUACCCUUGUGAUCGAGUGA [Fam2.1 aminoacylation ribozyme variant] | 7.77 | 3.53 | 9.16 | 7.15 | 50.1 | 3.2
33 | AUUCAACUAGGUCAUGGGGUG [Fam2.2 aminoacylation ribozyme variant] | 5.63 | 3.16 | 4.16 | 4.28 | 27.7 | 2.96
34 | GUUACCCUGGUCCUCGAGUGA [Fam2.1 aminoacylation ribozyme variant] | 5.97 | 4.16 | 6.45 | 6.3 | 42.7 | 3.36
35 | GUACUUCAAACAAUCGGUCUA [Fam1A.1 aminoacylation ribozyme variant] | 0.933 | 0.997 | 3.66 | 0.943 | 4.84 | 1.17
36 | AUACUCCAAACAAUCGGUCUG [Fam1A.1 aminoacylation ribozyme variant] | 0.534 | 0.743 | 1.61 | 0.759 | 1.98 | 0.827
37 | AUUGACCUUGGUCAUCGGGUG [Fam2.2 aminoacylation ribozyme variant] | 5.49 | 3.36 | 5.82 | 5.19 | 32.8 | 3.38
38 | AUUACACUGUUCAUCGAGUGA [Fam2.1 aminoacylation ribozyme variant] | 2.97 | 2.17 | 4.78 | 3.76 | 3.06 | 2.01
39 | AACUUUGCCAAUAGUCGCAAG [Fam3.1 aminoacylation ribozyme variant] | 2.81 | 2.64 | 3.85 | 2.79 | 14.7 | 2.62
40 | AUUCACCUAGGUUUUCGGGUG [Fam2.2 aminoacylation ribozyme variant] | 5.21 | 3.5 | 4.06 | 4.67 | 34.3 | 3.03
41 | AUUAGCCUGGCCAUCGAGUGA [Fam2.1 aminoacylation ribozyme variant] | 4.51 | 3.54 | 6.06 | 5.44 | 26.4 | 3.83
42 | AAUCACGUAGGUCAUCGGGUG [Fam2.2 aminoacylation ribozyme variant] | 4.02 | 3.77 | 4.86 | 3.19 | 30.4 | 3.09
43 | AUUCACCUAGGUGUUCGGGUG [Fam2.2 aminoacylation ribozyme variant] | 4.31 | 2.93 | 3.74 | 3.31 | 21.7 | 2.79
